Data: the supplement of paper PMC7877785
± gives the uncertainty stated by the source.

Assay: self-splicing fitness, log relative to wild type (ln ratio); higher = more splicing; Tetrahymena group I intron in knt gene, E. coli kanamycin selection, DiMSum; sequences stand for … in CUCUCU…GGAGGGAAAAGUUAUCAGGCAUGCACCUGGUAGCUAGUCUUUAAACCAAUAGAUUGCAUCGGUUUAAAAGGCAAGACCGUCAAAUUGCGGGAAAGGGGUCAACAGCCGUUCAGUACCAAGUCUCAGGGGAAACUUUGAGAUGGCCUUGCAAAGGGUAUGGUAAUAAGCUGACGGACAUGGUCCUAACCACGCAGCCAAGUCCUAAGUCAACAGAUCUUCUGUUGAUAUGGAUGCAGUUCACAGACUAAAUGUCGGUCGGGGAAGAUGUAUUCUUCUCAUAAGAUAUAGUCGGACCUCUCCUUAAUGGGAGCUAGCGGAUGAAGUGAUGCAACACUGGAGCCGCUGGGAACUAAUUUGUAUGCGAAAGUAUAUUGAUUAGUUUUGGAGUACUCGUGGUCG
Method in brief: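 The eight P1ex-region nucleotides of an intron in the knt kanamycin-resistance gene on pET-22b(+) were all randomised and the library put into E. coli BL21(DE3). Six replicate transformations were grown overnight at 37°C or 30°C on LB agar with or without 25 μg/mL kanamycin, together with 100 μg/mL carbenicillin, 50 μM IPTG and 0.2% rhamnose. Colonies were pooled and amplicon-sequenced on an Illumina HiSeq 2500. Fitness from DiMSum is the error-weighted combination of wild-type-normalised replicate fold changes, kanamycin over none.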

Sequence | self-splicing fitness (ln) (30 °C) | self-splicing fitness (ln) (37 °C)
AAAUAGCAAUAUUACGCGGU | -2.71 ± 0.18 | -1.93 ± 0.2
AAAUAGCAAUAUUACGCUUA | -1.47 ± 0.11 | -0.735 ± 0.13
AAAUAGCAAUAUUACGGAAC | -4.71 ± 0.45 | -1.74 ± 0.36
AAAUAGCAAUAUUACGGACC | -1.57 ± 0.25 | -1.26 ± 0.31
AAAUAGCAAUAUUACGGAUA | -2.19 ± 0.2 | -1.1 ± 0.16
AAAUAGCAAUAUUACGGGCG | -1.29 ± 0.08 | -0.403 ± 0.096
AAAUAGCAAUAUUACGGUUU | -1.3 ± 0.059 | -0.657 ± 0.076
AAAUAGCAAUAUUACGUCAC | -4.4 ± 0.42 | -2.53 ± 0.28
AAAUAGCAAUAUUACGUCGC | -2.54 ± 0.15 | -2.54 ± 0.28
AAAUAGCAAUAUUACGUGCG | -0.841 ± 0.13 | -0.149 ± 0.15
AAAUAGCAAUAUUACGUGUG | -2.05 ± 0.09 | -1.55 ± 0.086
AAAUAGCAAUAUUACGUUAU | -3.39 ± 0.18 | -2 ± 0.15
AACAAGCAAUAUUACGAACU | -0.328 ± 0.052 | 0.146 ± 0.084
AACAAGCAAUAUUACGAAUG | -3 ± 0.14 | -1.97 ± 0.12
AACAAGCAAUAUUACGCGCA | -0.604 ± 0.066 | 0.104 ± 0.094
AACAAGCAAUAUUACGCGGA | -2.07 ± 0.099 | -0.961 ± 0.078
AACAAGCAAUAUUACGCUCG | -0.882 ± 0.11 | -0.282 ± 0.11
AACAAGCAAUAUUACGCUCU | -0.638 ± 0.075 | 0.0475 ± 0.089
AACAAGCAAUAUUACGCUGC | -3.38 ± 0.3 | -2.45 ± 0.28
AACAAGCAAUAUUACGCUGU | -3.38 ± 0.12 | -2.32 ± 0.13
AACAAGCAAUAUUACGGAAU | -2.64 ± 0.13 | -1.75 ± 0.14
AACAAGCAAUAUUACGGAGC | -4.22 ± 0.3 | -3.65 ± 0.36
AACAAGCAAUAUUACGGGAA | -1.57 ± 0.097 | -1.86 ± 0.13
AACAAGCAAUAUUACGGGAU | -2.27 ± 0.098 | -1.01 ± 0.1

Sequence | self-splicing fitness (ln) (30 °C) | self-splicing fitness (ln) (37 °C)
AACAAGCAAUAUUACGGUAG | -3.81 ± 0.2 | -2.22 ± 0.13
AACAAGCAAUAUUACGGUGC | -3.67 ± 0.16 | -2.04 ± 0.12
AACAAGCAAUAUUACGUACA | -1.04 ± 0.095 | -0.329 ± 0.11
AACAAGCAAUAUUACGUACU | -0.11 ± 0.05 | 0.496 ± 0.071
AACAAGCAAUAUUACGUAUA | -2.4 ± 0.13 | -1.59 ± 0.12
AACAAGCAAUAUUACGUAUC | -4.08 ± 0.15 | -2.01 ± 0.11
AACAAGCAAUAUUACGUCUG | -1.22 ± 0.058 | -0.709 ± 0.076
AACAAGCAAUAUUACGUGUC | -4.91 ± 0.21 | -2.96 ± 0.095
AACAAGCAAUAUUACGUUCC | -3.85 ± 0.36 | -0.835 ± 0.2
AACCAGCAAUAUUACGAAGA | -2.02 ± 0.081 | -0.639 ± 0.082
AACCAGCAAUAUUACGCACU | 0.473 ± 0.074 | 0.0602 ± 0.078
AACCAGCAAUAUUACGCCCU | 0.309 ± 0.089 | -0.381 ± 0.13
AACCAGCAAUAUUACGCCGG | -3.39 ± 0.17 | -2.09 ± 0.17
AACCAGCAAUAUUACGCGUU | -3.77 ± 0.15 | -1.56 ± 0.15
AACCAGCAAUAUUACGCUUA | -0.415 ± 0.046 | -0.0597 ± 0.055
AACCAGCAAUAUUACGGAGC | -2.17 ± 0.12 | -1.49 ± 0.13
AACCAGCAAUAUUACGGAUC | -2.84 ± 0.11 | -1.48 ± 0.1
AACCAGCAAUAUUACGGCAA | -0.217 ± 0.07 | -0.0314 ± 0.082
AACCAGCAAUAUUACGGCCG | 0.0592 ± 0.073 | -0.223 ± 0.1
AACCAGCAAUAUUACGGGAU | -2.59 ± 0.097 | -1.6 ± 0.098
AACCAGCAAUAUUACGGUGG | -2.33 ± 0.086 | -1.44 ± 0.1
AACCAGCAAUAUUACGUACU | 0.015 ± 0.053 | 0.248 ± 0.066
AACCAGCAAUAUUACGUAGA | -1.75 ± 0.044 | -0.514 ± 0.058
AACCAGCAAUAUUACGUCAA | -1.38 ± 0.062 | -1.06 ± 0.074

Sequence | self-splicing fitness (ln) (30 °C) | self-splicing fitness (ln) (37 °C)
AACCAGCAAUAUUACGUCUA | -0.091 ± 0.062 | -0.6 ± 0.067
AACGAGCAAUAUUACGAAAU | -3.74 ± 0.29 | -2.26 ± 0.21
AACGAGCAAUAUUACGACAA | -2.78 ± 0.24 | -0.872 ± 0.18
AACGAGCAAUAUUACGACUC | -1.14 ± 0.064 | -0.414 ± 0.081
AACGAGCAAUAUUACGCAAC | -2.01 ± 0.21 | -1.94 ± 0.44
AACGAGCAAUAUUACGCAAG | -3.43 ± 0.19 | -2.19 ± 0.19
AACGAGCAAUAUUACGCACC | -2.32 ± 0.42 | -1.65 ± 0.35
AACGAGCAAUAUUACGCCGC | -2.6 ± 0.24 | -3.58 ± 0.39
AACGAGCAAUAUUACGCCGU | -3.6 ± 0.18 | -1.88 ± 0.16
AACGAGCAAUAUUACGCGAA | -4 ± 0.29 | -2.96 ± 0.28
AACGAGCAAUAUUACGCGAC | -2.91 ± 0.21 | -2.03 ± 0.27
AACGAGCAAUAUUACGCUAA | -3.19 ± 0.35 | -2.33 ± 0.16
AACGAGCAAUAUUACGCUAU | -3.9 ± 0.24 | -2.18 ± 0.23
AACGAGCAAUAUUACGGAAG | -2.67 ± 0.16 | -2.45 ± 0.28
AACGAGCAAUAUUACGGAGC | -3.72 ± 0.19 | -2.05 ± 0.15
AACGAGCAAUAUUACGGCAC | -2.99 ± 0.22 | -1.89 ± 0.29
AACGAGCAAUAUUACGGGGA | -2.72 ± 0.21 | -3.6 ± 0.34
AACGAGCAAUAUUACGGGUU | -2.17 ± 0.18 | -2.05 ± 0.22
AACGAGCAAUAUUACGGUGA | -3.07 ± 0.33 | -1.99 ± 0.31
AACGAGCAAUAUUACGUAAU | -3.78 ± 0.15 | -1.75 ± 0.12
AACGAGCAAUAUUACGUAGU | -3.97 ± 0.15 | -2.24 ± 0.15
AACGAGCAAUAUUACGUAUA | -2.83 ± 0.19 | -2.34 ± 0.27
AACGAGCAAUAUUACGUCGC | -2.69 ± 0.36 | 1.3 ± 0.3
AACGAGCAAUAUUACGUCUU | -1.33 ± 0.074 | -0.279 ± 0.093

Sequence | self-splicing fitness (ln) (30 °C) | self-splicing fitness (ln) (37 °C)
AACGAGCAAUAUUACGUGCG | -2.23 ± 0.11 | -1.92 ± 0.15
AACUAGCAAUAUUACGAAAC | -3.3 ± 0.21 | -2.94 ± 0.3
AACUAGCAAUAUUACGAACA | -1.12 ± 0.07 | -0.611 ± 0.081
AACUAGCAAUAUUACGAAGG | -3.46 ± 0.2 | -2.74 ± 0.26
AACUAGCAAUAUUACGACCU | -0.168 ± 0.083 | 0.541 ± 0.11
AACUAGCAAUAUUACGACGA | -0.137 ± 0.066 | -0.576 ± 0.074
AACUAGCAAUAUUACGAGGC | -3.35 ± 0.2 | -2.62 ± 0.35
AACUAGCAAUAUUACGAUAU | -1.26 ± 0.077 | -0.429 ± 0.11
AACUAGCAAUAUUACGCAGG | -2.99 ± 0.15 | -1.66 ± 0.14
AACUAGCAAUAUUACGCAUU | -2.19 ± 0.077 | -1.09 ± 0.073
AACUAGCAAUAUUACGCGGA | -2.25 ± 0.1 | -1.18 ± 0.086
AACUAGCAAUAUUACGGCCA | -0.0639 ± 0.1 | -0.69 ± 0.1
AACUAGCAAUAUUACGGCGG | -1.21 ± 0.087 | -0.787 ± 0.11
AACUAGCAAUAUUACGGCGU | -0.717 ± 0.072 | 0.0758 ± 0.085
AACUAGCAAUAUUACGGUAA | -1.49 ± 0.094 | -0.267 ± 0.095
AACUAGCAAUAUUACGGUCA | -0.313 ± 0.074 | 0.442 ± 0.093
AACUAGCAAUAUUACGGUGC | -2.46 ± 0.16 | -1.77 ± 0.15
AACUAGCAAUAUUACGUCAU | -2.91 ± 0.13 | -1.21 ± 0.12
AACUAGCAAUAUUACGUCCA | -0.578 ± 0.094 | -0.0353 ± 0.11
AACUAGCAAUAUUACGUCGU | -1.8 ± 0.055 | -1.03 ± 0.067
AACUAGCAAUAUUACGUGGC | -3.72 ± 0.25 | -1.92 ± 0.17
AACUAGCAAUAUUACGUUAA | -2.93 ± 0.24 | -1.71 ± 0.23
